Legend:
[1] = target: T1, recombinant his-tagged human TACI (Sinobiological cat #11937-H08H) (human, UniProt O14836 1-165); assay: ELISA, coated His-tagged human TACI
T1 construct: Bought protein; also called Human TACI-His; huTACI; not shown: His tag
T1 sequence: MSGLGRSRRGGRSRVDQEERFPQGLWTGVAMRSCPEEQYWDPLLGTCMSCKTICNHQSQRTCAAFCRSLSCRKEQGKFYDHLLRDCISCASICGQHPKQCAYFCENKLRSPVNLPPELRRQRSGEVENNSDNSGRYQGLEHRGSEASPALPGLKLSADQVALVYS

[2] = target: T2, human BCMA expressed on cells (human, UniProt Q02223 1-184); assay: flow cytometry, HEK 293 cells expressing human BCMA
T2 construct: the cell line is named under assay; also called wildtype human BCMA
T2 sequence: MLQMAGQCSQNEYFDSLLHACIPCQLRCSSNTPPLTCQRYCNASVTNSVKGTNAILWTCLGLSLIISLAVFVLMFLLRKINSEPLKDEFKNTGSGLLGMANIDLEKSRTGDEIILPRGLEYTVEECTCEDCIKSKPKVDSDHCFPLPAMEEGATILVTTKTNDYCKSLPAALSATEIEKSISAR

[3] = target: T3, Cyno TACI-His (Sino Biological, 90976-C08H) (cynomolgus macaque, UniProt G7PTR7 1-165); assay: ELISA, coated Cyno TACI-His
T3 construct: Bought protein; also called cynomolgous macaque TACI; CyTACI
T3 sequence: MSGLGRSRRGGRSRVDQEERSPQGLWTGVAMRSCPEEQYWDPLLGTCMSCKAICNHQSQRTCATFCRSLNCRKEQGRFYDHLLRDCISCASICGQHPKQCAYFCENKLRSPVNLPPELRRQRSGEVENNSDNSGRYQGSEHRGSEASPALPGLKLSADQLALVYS

[4] = target: T4, His-tagged human BCMA (Acro Biosystems, Cat. #BCA-H522y) (human, UniProt Q02223 1-54); assay: ELISA, reference antibody, coated His-tagged antigen
T4 construct: also called huBCMA; P1; not shown: His tag
T4 sequence: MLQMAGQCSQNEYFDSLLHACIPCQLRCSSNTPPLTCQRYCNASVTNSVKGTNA

[5] = target: T2, human BCMA expressed on cells; assay: flow cytometry, fixed RPMI 8226 cells (BCMA+, TACI+: the cells carry both targets)

B1: J6M0 (antibody, V domains shown)
VH: QVQLVQSGAEVKKPGSSVKVSCKASGGTFSNYWMHWVRQAPGQGLEWMGATYRGHSDTYYNQKFKGRVTITADKSTSTAYMELSSLRSEDTAVYYCARGAIYDGYDVLDNWGQGTLVTVSS
VL: DIQMTQSPSSLSASVGDRVTITCSASQDISNYLNWYQQKPGKAPKLLIYYTSNLHSGVPSRFSGSGSGTDFTLTISSLQPEDFATYYCQQYRKLPWTFGQGTKLEIK
notes: also called J6M0-hIgG1; anti-BCMA
[1]
  binding result: no binding (tested: 10 ug/ml)
[2]
  EC50: 10.1 nM
[3]
  binding result: no binding (tested: log M about -7.7 (3 ug/ml per paragraph 742))
[4]
  EC50: 0.0126 µg/mL
[5]
  EC50: ~9.61 nM

Reference: patent US20230374147A1 (HUMMINGBIRD BIOSCIENCE PTE, published 2023)
